Publication PMC12392964

Target: FvMYB1-GST (woodland strawberry (Fragaria vesca))
Test: pull-down; FvSTOP1-His and FvbHLH33-His incubated together with FvMYB1-GST; detection with anti-His, bands quantified with ImageJ against the incubation alone

| binding strength with FvSTOP1-His present, against incubation alone (ImageJ) | binding strength with FvbHLH33-His present, against incubation alone (ImageJ) | Substance |
| --- | --- | --- |
| 0.54 times | – | FvbHLH33-His (natural protein) |
| – | 0.31 times | FvSTOP1-His (natural protein) |
